Measured values: paper doi:10.1101/324103 (bioRxiv, 2018)

Biological target: the molecule itself
Experiment: SEC-MALS + AUC

B1: ammonium transporter AmtB from Escherichia coli (natural protein)
chain: APAVADKADNAFMMICTALVLFMTIPGIALFYGGLIRGKNVLSMLTQVTVTFALVCILWVVYGYSLAFGEGNNFFGNINWLMLKNIELTAVMGSIYQYIHVAFQGSFACITVGLIVGALAERIRFSAVLIFVVVWLTLSYIPIAHMVWGGGLLASHGALDFAGGTVVHINAAIAGLVGAYLIGKRVGFGKEAFKPHNLPMVFTGTAILYIGWFGFNAGSAGTANEIAALAFVNTVVATAAAILGWIFGEWALRGKPSLLGACSGAIAGLVGVTPACGYIGVGGALIIGVVAGLAGLWGVTMLKRLLRVDDPCDVFGVHGVCGIVGCIMTGIFAASSLGGVGFAEGVTMGHQLLVQLESIAITIVWSGVVAFIGYKLADLTVGLRV
For B1, the “stoichiometry N” value was 3.
